# Experiments:
# Assay in all cases: co-IP; FFLISA as a1; total Lck signal of all sucrose gradient fractions normalised to CD4 signal, given relative to WT
# [1] = target: mouse CD4 Clasp mutant (C444S, C446S) (mouse) (UniProt P06332)
# [2] = target: mouse CD4 HC mutant (total helix + clasp: aa430–442 replaced, C444S, C446S) (mouse) (UniProt P06332)
# [3] = target: mouse CD4 TP mutant (TMD + Palm: G403V, G406L, C418S, C421S) (mouse) (UniProt P06332)
# [4] = target: mouse CD4 H mutant (total ICD helix mutation, aa430–442 to …) (mouse) (UniProt P06332)
# [5] = target: mouse CD4 LL mutant (L437A + L438A) (mouse) (UniProt P06332)
substance,measurement,setting,value
Lck (Src kinase) (from UniProt P06240 1-509) (enzyme),"total CD4–Lck abundance, percent of WT",[1],31 % of WT
same,"CD4−Lck association, percent of WT",[2],14 % of WT
same,"total CD4–Lck abundance, percent of WT",[3],123 % of WT
same,"CD4−Lck association, percent of WT",[4],25 % of WT
same,"total CD4–Lck abundance, percent of WT",[5],49 % of WT

# — paper PMC9333989
